Target: human PD-L1 expressed on the cell surface (CHO cells expressing human PD-L1; Promega CS187103 / 187103 cells) (human) (UniProt Q9NZQ7)
Sequence (Q9NZQ7 19-290): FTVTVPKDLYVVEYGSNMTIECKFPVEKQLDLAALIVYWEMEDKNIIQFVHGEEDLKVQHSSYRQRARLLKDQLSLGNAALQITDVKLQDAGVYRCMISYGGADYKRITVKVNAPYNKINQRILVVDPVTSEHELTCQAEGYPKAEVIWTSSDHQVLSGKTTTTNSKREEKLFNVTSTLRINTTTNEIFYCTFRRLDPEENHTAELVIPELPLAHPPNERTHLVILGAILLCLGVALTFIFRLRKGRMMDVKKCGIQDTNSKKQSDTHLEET

EC50, PD-1/PD-L1 blockade (% PDL1 Blockade, NFAT-luciferase reporter): 0.17 nM
B1: 29E.2A3 (antibody, from another filing, V domains shown)
VH: EVQLQQSGPELVKPGASVKMSCKASGYTFTSYVMHWVKQKPGQGLEWIGYVNPFNDGTKYNEMFKGKATLTSDKSSSTAYMELSSLTSEDSAVYYCARQAWGYPWGQGTLVTVSA
VL: DIVLTQSPASLAVSLGQRATISCRATESVEYYGTSLVQWYQQKPGQPPKLLIYAASSVDSGVPARFSGSGSGTDFSLTIHPVEEDDIAMYFCQQSRRVPYTFGGGTKLEIK
